PMC5389561 (Nucleic Acids Research, 2016)
Values belong to the molecule of their own block, whether it stands above or below them.

Legend:
[1] = target: Csm2 with a 6-His tag on the N-terminus (Csm2^H6N) (S. epidermidis RP62a); assay: co-purification
[2] = target: recombinant Csm3 (untagged) (S. epidermidis); assay: native gel or EMSA
[3] = target: Csm5–Smt3 (Csm5 with an N-terminal His10Smt3 tag) (S. epidermidis); assay: pull-down
native gel or EMSA = target: the molecule itself; assay: native gel or EMSA

- % Csm3 band intensity of the total band intensity of the purified complex [1]: 18%
Molecule: Csm3 (wild type, in the Cas10–Csm complex) (natural protein)

- % Csm3 band intensity of the total band intensity of the purified complex [1]: 12%
Molecule: Csm3 D179A (in the Cas10–Csm complex) (natural protein)

- stoichiometry N [2]: 6
Molecule: recombinant Csm3 (untagged) (natural protein)

- PNPase signal intensity as % of total signal in the eluate [3]: 5.9%
B1: recombinant polynucleotide phosphorylase (PNPase), untagged (enzyme, S. epidermidis RP62a, UniProt Q5HPR7 1-701, looked up)
chain: MSQEKKVFKTEWAGRSLTIETGQLAKQANGAVLVRYGDTVVLSTATASKEPRDGDFFPLTVNYEEKMYAAGKIPGGFKKREGRPGDEATLTARLIDRPIRPLFPKGYRHDVQIMNIVLSADPDCSPEMAAMIGSSMALSVSDIPFQGPIAGVNVGYIDGKYVINPSVADKEISRLDLEVAGHKDAVNMVEAGASEITESEMLEAIFFGHEEIKRLVAFQQEIIDHIQPIKQEFVPVERDEDLVEKVKSLTEDKGLKDTVLTFDKQQRDENLDALKEEVVGHFLDEEDPENETLVKEVYAILNDLIKEEVRRLIADEKIRPDGRKVDEIRPLESEVGLLPRAHGSGLFTRGQTQALSVLTLGALGDYQLIDGLGPEVEKRFMHHYNFPNFSVGETGPVRAPGRREIGHGALGERALRYIIPDTQDFPYTIRIVSEVLESNGSSSQASICGSTLALMDAGVPIKAPVAGIAMGLVTRDDSYTILTDIQGMEDALGDMDFKVAGTKDGITAIQMDIKIDGLTREVIEEALEQARQGRLAIMDHMLHTIEQPREELSAYAPKVVTMSINPDKIRDVIGPGGKKINEIIDETGVKLDIEQDGTIFIGAVDQAMINRAKEIIEDITREAEVGQVYHAKVKRIEKYGAFVELFPGKDALLHISQISQERINKVEDVLKIGDTIEVKITEIDKQGRVNASHKVLEQSKN
- stoichiometry N (native gel or EMSA): 3
